Results from the supplement of paper PMC9170038.

Tested on: MS2 coat protein
Assay: apparent KD of MS2 coat protein; designed switch direction (-1 OFF switch, 1 ON switch): -1; higher = weaker reporter binding
Procedure, shortened: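 Each step of the titration lasted 0.8–1.5 h at the lowest concentration and 10–20 min at the highest. The protein, SNAP-549-labelled MS2 coat protein, went from 0.7 or 1.5 nM doubling to 3 µM over RNA switches transcribed on Illumina chips by stalled E. coli RNA polymerase. Normalised cluster fluorescence was curve-fitted, and the per-design median over clusters is given as apparent KD.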

[1] = Eterna round: R95, input ligand: microRNA oligo, concentration not stated
[2] = Eterna round: R95, input ligand: FMN 200 uM
[3] = Eterna round: R95, input ligand: none
[4] = input ligand: microRNA oligo, concentration not stated

Row | Sequence | apparent KD of MS2 coat protein (input ligand: FMN 200 uM) [µM] | apparent KD of MS2 coat protein (input ligand: none) [µM] | apparent KD of MS2 coat protein [1] [µM] | apparent KD of MS2 coat protein [2] [µM] | apparent KD of MS2 coat protein [3] [µM] | apparent KD of MS2 coat protein [4] [µM]
1 | AUAAUGUGAGGAUAUCAGUCGACUAGCUGCGGCUAGUCGACUGAGAAGGUACAUGAGGAUCACCCAUGUGGUUC [E4/11-B3] (Eterna round: R97, puzzle: Exclusion 4) | 0.904 | 0.434 |  |  |  | 
2 | AAGUAUAGAGGAUAUAGUAGUUACAACAUGAGGAUCACCCAUGUUCUUCAUAACGUAGUUCUAGAAGGCUGAUAAA [EX-5 Malc#28] (puzzle: Exclusion 5) |  |  | 0.172 |  |  | 
3 | AGUACUGACACGUCGGUGUUAGUACAAUAAGCUUGUGAAACAUGAGGAUCACCCAUGUCCUCAUAAGCUCGUCUUAU [salish99_TOv2_r3_081] (puzzle: Sensor v3, turn-off variant 2) |  |  | 0.659 | 0.017 | 0.015 | 
4 | CCGGGUUAUGUUAGGAUAUGUAGGCCGCAACCGGAACAGAAGGGACAUGAGGAUCACCCAUGUGAUAUUCCCGG [Onxexe] (puzzle: Brourd's mod of Exclusion 4) |  |  | 0.0175 |  |  | 
5 | GUCCUGGACUAUCACAAGCACAUGAGGAUCACCCAUGUCAUGGGUAGAUCCCUAAAUAAAGAUACUGCUCGUCUUAU [Cac sensor turnoff var1 sub6] (Eterna round: R97, puzzle: Sensor, turn-off variant 1) | 0.16 | 0.3 |  |  |  | 
6 | AAGCGCGUAGGAUAUACAUGAGGAUCACCCAUGUGAGGAAGGAGUAGGAAGUGUGGAAGUAGAAGGACGGAGAG [JR_Exclu3_Sub077] (puzzle: Exclusion 3) |  |  | 0.0311 | 0.0344 | 0.0374 | 
7 | CUCCUCAUGGCGCCUAAACACAUGAGGAUCACCCAUGUACAGGCUUCUUGCCGUCUUAUAAUAAAACCGAGGAUGCG [Onleorqula] (puzzle: Sensor v3, turn-off variant 1) |  |  | 0.283 | 0.0438 | 0.0473 | 
8 | UUCGUUUUAGGAUAUACAGGGUUGGUCGACAACUCACUGUCACAUGAGGAUCACCCAUGUAGAAGGGAGAGAAG [Eternabot (L1) Solution 49] (Eterna round: R97, puzzle: Exclusion 2) | 0.244 | 0.198 |  |  |  | 
9 | UCGACCGGAGGAUAUCACGUAAAGUACAUGAGGAUCACCCAUGUGUGAUGACUCGAGUCGUGAGAAGGCCGAUAUG [Larausbeer] (puzzle: Exclusion 5) |  |  | 0.0658 |  |  | 
10 | GUGUAGAUAGGAUAUGCGUGAGUCUAGCGAAGCUAGGCUCUACAUGAGGAUCACCCAUGUAGAAGGGUCUACAC [Dot plot directed A v14] (puzzle: Exclusion 2) |  |  | 0.0173 |  |  | 
11 | UUAUUGUGAGGAUAUCAGGUGUGCUAGCGUACUGGUACAUCUGAGAAGGCACAUGAGGAUCACCCAUGUUUCUU [JL-ex4-3.22 Brourd mod] (puzzle: Exclusion 4) |  |  | 0.0211 |  |  | 
12 | GUGUACGUAGGAUAUACAUGAGGAUCACCCAUGUGAAUAAGAUAGAAUAAGAUAAAGUGUAGAAGGACGAGUGU [Excluse me!!! 6 - Jieux - Exclusion 3] (puzzle: Exclusion 3) |  |  | 0.0304 |  |  | 
13 | AAGAAACAUGAGGAUCACCCAUGUGAGGAUAUGUAAAAUAAAAGAAAAGAAAUAAUAAACAGAAGGCACAAAGG [Mat - Mod of Hog D15] (puzzle: Exclusion 1) |  |  | 0.0309 | 0.0521 | 0.0414 | 
14 | CAAAAUGUAUAAGGAUAUCUCGCCAAUAAAGGCAGAGAAGGUAUACCCACUUGAGGAUCACCCAAGUCACGUGUGCCUGGUGGA [Mutated MS2 EX1.25] (Eterna round: R96, puzzle: Exclusion NG 1) | 0.00927 | 0.011 |  |  |  | 0.00925
15 | ACAUGAGGAUCACCCAUGUAAUCAUAAUGGCUGAUGUAGAGUCAGGAUAUGUGUGGCUAACAAUCGCAGAAGGGACAAGACUGG [Deportation 32 - Jieux - Exclusion NG 3] (Eterna round: R96, puzzle: Exclusion NG 3) | 0.0314 | 0.0295 |  |  |  | 0.0216
16 | UAAAUCGCAGGAUAUCCAGAGGAGGACAUGAGGAUCACCCAUGUGGAAAGGAAAGGAGGAGGAGAAGGGCGAUUUA [Paired] (Eterna round: R97, puzzle: Exclusion 5) | 0.0844 | 0.0725 |  |  |  | 
17 | AUUAUUUAAGUCAGGAUAUCGUAUUUAUUUAAAUACGAGAAGGGACAUGAGGAUCACCCAUGUAAUAAAUUUUA [JMFs Solution 2] (puzzle: Brourd's mod of Exclusion 4) |  |  | 0.0166 |  |  | 
18 | CCAAGCUUAUUCAUUAACCACAUGAGGAUCACCCAUGUCUAGGCAAUUAUGACUGGCCCAUCUGGUGCUCGUCUUAU [Sensor-V1 #31] (Eterna round: R97, puzzle: Sensor, turn-off variant 1) | 0.0209 | 0.0208 |  |  |  | 
19 | GCCAGAGCAGGAUAUUCAAUAUUCCACAUGAGGAUCACCCAUGUCCAGCGAAAGCUGGAGGGAGAAGGGCUCUGGC [Fiskers Ex 5 - 8] (puzzle: Exclusion 5) |  |  | 0.0436 | 0.0273 | 0.0563 | 
20 | AGGUGAGCCGUCAGGAUAUGCGUUCCGUAGGGUCAGCAGAAGGGACAUGAGGAUCACCCAUGUUUCGCACGUGG [Veraxedi] (puzzle: Brourd's mod of Exclusion 4) |  |  | 0.031 |  |  | 
21 | GCUAGACAUGUCAGGAUAUGCUGUACCUUGGUACAGCAGAAGGGACAUGAGGAUCACCCAUGUGCCUAUCUAGC [JL-BMX4-4.05] (Eterna round: R97, puzzle: Brourd's mod of Exclusion 4) | 0.308 | 0.0436 |  |  |  | 
22 | CCUGUGUGAGGAUAUGGUGUUGGCCAAAAGGAAUAGCUCCUCCAGAAGGCACAUGAGGAUCACCCAUGUCGUGG [Jolly's Folly 23 - Jieux - Exclusion 4] (Eterna round: R96, puzzle: Exclusion 4) | 0.138 | 0.0602 |  |  |  | 0.0503
23 | GAUUAUGCGAGCUUUAGGGACAUGAGGAUCACCCAUGUUCGUCUUAUUGGUCUGAAUACACUGACAUACCUAAAUCU [JMF 56] (puzzle: Sensor v3, turn-off variant 1) |  |  | 0.0218 | 0.0166 | 0.0159 | 
24 | UGUUGUCGCGCAGGAUAUGAGGAUCACCCAUGUAGAGGAUAUGAAAAGAAGGCUCUGAGGAUUACCCAGAAGGGCGGGACAACU [pwkr exNG2 2xF5 2xFMN.25] (Eterna round: R96, puzzle: Exclusion NG 2) | 0.8 | 0.4 |  |  |  | 0.27
25 | UUAAAUCAUGUAGGAUAUGCGUGGCGAAGCUAUGCAGAAGGACAUGAGGAUCACCCAUGUGCUUGCGUCUGAGUACAGAUGCUA [Mat - Exclusion NG 1 - Mod of JL - D4] (Eterna round: R96, puzzle: Exclusion NG 1) | 0.0864 | 0.117 |  |  |  | 0.074
26 | CUGGUUGUCGAGGAUAUGCACCGGCUCGCUGACGCAGAAGGCGACACAUGAGGAUCACCCAUGUCGGUUCGCGU [salish99_ex6_r004_438] (Eterna round: R97, puzzle: Exclusion 6) | 0.029 | 0.0191 |  |  |  | 
